Results on 4 molecules are retold here after patent US20220363752A1 (VERSEAU THERAPEUTICS, published 2022).

In test [1] the target is T1, LRRC25(21-40) biotin peptide (human, not fully specified; N-terminal NH2; C-terminal GGK-Biotin; native Cys changed to Ser).
T1 peptide: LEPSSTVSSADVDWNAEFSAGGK
Nature of the test: peptide ELISA. How it is done: (§1) To establish if functional chimera anti-LRRC25 antibodies recognize particular regions of LRRC25, ELISA experiments were performed using 10 plate-immobilized 16- to 20-mer overlapping LRRC25(ECD) biotin peptides (Table 7). Biotinylated human LRRC25-His served as a positive control. A typical ELISA was performed by coating overnight at 4° C., 3 ug/mL/25 ul per well of streptavidin (Jackson Immunoresearch, Cat. #016-030-084) in PBS in half-area high binding microtiter wells (Corning Cat. #3690). […] Biotin peptides or biotinylated human LRRC25-His protein were added in duplicate (2 ug/mL/25 ul per well) in assay buffer (blocking buffer containing 0.05% tween 20) and the plate incubated for 45 min at 37° C. The plate was washed as before, 20 nM anti-LRRC25 antibodies in assay buffer added in duplicate into appropriate wells, and the plate incubated as before. The plate was washed and HRP-conjugated secondary antibody in assay buffer added [25 ul per well; goat anti-human IgG (Jackson Immunoresearch, Cat. #715-035-150)], and incubated as before. Antibody bound to plate-immobilized peptide(s) or protein was determined at A450 nm using HRP substrate (3,3′,5,5′-tetramethylbenzidine (TMB); eBioscience; Cat. #00-4201-56); 100 μl/well).

Test [2] has as its target T2, LRRC25(36-55) biotin peptide (human, not fully specified; N-terminal NH2; C-terminal GGK-Biotin; native Cys changed to Ser).
T2 peptide: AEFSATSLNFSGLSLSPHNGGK
The test can be described thus: peptide ELISA. How it is done:
as §1

Test [3] deals with T3, LRRC25(51-69) biotin peptide (human, not fully specified; N-terminal acetyl; C-terminal GGK-Biotin).
T3 peptide: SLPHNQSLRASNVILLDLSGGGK
Nature of the test: peptide ELISA. How it is done: as §1

The target of test [4] is T4, LRRC25(66-85) biotin peptide (human, not fully specified; N-terminal acetyl; C-terminal GGK-Biotin).
T4 peptide: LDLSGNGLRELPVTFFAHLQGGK
The test can be described thus: peptide ELISA. How it is done: as §1

The target in test [5] is T5, LRRC25(81-100) biotin peptide (human, not fully specified; N-terminal acetyl; C-terminal GGK-Biotin).
T5 peptide: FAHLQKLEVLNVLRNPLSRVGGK
Nature of the test: peptide ELISA. The method, then:
as §1

Test [6] concerns the target T6, LRRC25(96-115) biotin peptide (human, not fully specified; N-terminal acetyl; C-terminal GGK-Biotin; native Cys changed to Ser).
T6 construct: also called Biotin LRRC25 (96-115) peptide
T6 peptide: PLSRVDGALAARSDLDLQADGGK
Nature of the test: peptide ELISA. How it is done:
as §1

Test [7] concerns the target T7, LRRC25(111-130) biotin peptide (human, not fully specified; N-terminal acetyl; C-terminal GGK-Biotin; native Cys changed to Ser).
T7 peptide: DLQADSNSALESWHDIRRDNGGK
Nature of the test: peptide ELISA. The method, then:
as §1

Test [8] deals with T8, LRRC25(126-145) biotin peptide (human, not fully specified; N-terminal acetyl; C-terminal GGK-Biotin; native Cys changed to Ser).
T8 peptide: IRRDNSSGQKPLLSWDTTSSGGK
Nature of the test: peptide ELISA. How it is done: as §1

For test [9], the target named is T9, LRRC25(141-159) biotin peptide (human, not fully specified; N-terminal acetyl; C-terminal GGK-Biotin; native Cys changed to Ser).
T9 peptide: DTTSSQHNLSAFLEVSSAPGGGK
The test can be described thus: peptide ELISA. How it is done: as §1

Test [10] has as its target T10, LRRC25(150-165) biotin peptide (human).
T10 peptide: Ac-SAFLEVSSAPGLASATGG-{Biotin′}
Nature of the test: peptide ELISA. How it is done:
as §1

The target in test [11] is T11, His-tagged human LRRC25 extracellular domain protein, human LRRC25-His (human, UniProt Q8N386 21-165).
T11 construct: The entry holds the extracellular domain, a GSG linker and the His tag; also called LRRC25(ECD)-HIS
T11 sequence (Q8N386 other isoform, or with tags, fused parts or gaps): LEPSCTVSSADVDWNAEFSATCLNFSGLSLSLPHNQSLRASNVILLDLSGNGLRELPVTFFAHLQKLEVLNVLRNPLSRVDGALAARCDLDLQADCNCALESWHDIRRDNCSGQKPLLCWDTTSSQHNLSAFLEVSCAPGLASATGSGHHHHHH
The test can be described thus: ELISA, plate-immobilized antigen. The method, then: To establish the relative binding strengths of anti-LRRC25 antibodies against human LRRC25, and their cross-reactivity with cynomolgus monkey LRRC25, antibody binding curve analyses were performed and EC50 values against plate-immobilized recombinant human and cyno LRRC25 proteins were determined.
(§2) A typical ELISA was performed by coating overnight in PBS, pH 7.4, at 4° C. in high binding microtiter wells with 1 ug/mL/100 ul per well of human LRRC25-His or cyno LRRC25-His. An anti-human LRRC25 antibody (2A3, LS Bio, LS-C174039-100) and anti-HIS-HRP (Miltenyi Biotec; 130-092-783) served as coating controls for the human and cyno LRRC25 proteins, respectively. […] Anti-LRRC25 antibodies were added (100 ul per well) at 500 nM and serially diluted 3-fold in assay buffer (1% skimmed milk in PBS, pH 7.4). The plate was incubated with gentle agitation for 1 h at room temperature. The plate was washed 3× and HRP-conjugated secondary antibody in assay buffer added [100 ul per well; goat anti-human IgG (Jackson Immunoresearch, cat #715-035-150)], and the plate was incubated as before. Antibody bound to plate-immobilized LRRC25(ECD)-HIS was determined at A450 nm using HRP substrate (3,3′,5,5′-tetramethylbenzidine (TMB); eBioscience; 00-4201-56); 100 μl/well).

Test [12] deals with T12, His-tagged cynomolgus monkey LRRC25 extracellular domain protein, cyno LRRC25-His (cynomolgus monkey).
T12 construct: The entry holds the extracellular domain, a GSG linker and the His tag
T12 sequence (chain, as listed by the source limits assumed): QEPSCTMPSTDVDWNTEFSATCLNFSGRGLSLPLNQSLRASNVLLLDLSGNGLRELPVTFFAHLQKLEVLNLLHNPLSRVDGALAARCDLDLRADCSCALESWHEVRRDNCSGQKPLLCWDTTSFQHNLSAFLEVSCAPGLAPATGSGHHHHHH
Nature of the test: ELISA, plate-immobilized cyno LRRC25-His. How it is done: as §2

The target in test [13] is T13, biotinylated human LRRC25-His protein (human, UniProt Q8N386 21-165, biotinylated (sites not given)).
T13 construct: also called Biotin LRRC25-His; biotinylated LRRC25 protein
T13 sequence (Q8N386 other isoform, or with tags, fused parts or gaps): as the sequence (Q8N386 other isoform, or with tags, fused parts or gaps) above
The test can be described thus: ELISA, 20 nM antibody, biotinylated antigen on streptavidin plate. The method, then:
as §1

Test [14] addresses T6, LRRC25(96-115) biotin peptide. The description is as above. How it is done:
as §1

Changes are numbered by the printed parent chain. Primed or numbered codes have the meaning given here. Biotin′ = not defined here

B1: anti-LRRC25 chimeric antibody 4A03 (antibody, human IgG4, V domains shown)
VH: DVNLEVSGGGLVKPGGSLKLSCAASGFTFSRYAMSWVRQTPEKRLEWVASISRGGSTYYPDSVKGRFTISRDIARDILYLQMSSLRSEDTAMYYCARGNYGSSLFAYWGQGTLVTVSA
VL: DIVMTQAAFSNPVTLGTSASISCRSSKSLLHSNGITYLYWYLQKPGQSPQLLIYQMSNLASGVPDRFSSSGSGTDFTLRISRVEAEDVGVYYCAQNLELPFTFGSGTKLEIKR
Regarding B1, the binding result in test [1], in test [2], in test [3], in test [4], in test [5] and in [6] was “no binding (tested: 20 nM)” each time. The binding result in test [7] is reported as “no binding (tested: 20 nM)”; in test [8], “no binding (tested: 20 nM)”; in [9], “no binding (tested: 20 nM)”; in test [10] it was “no binding (tested: 20 nM)”; in test [12], “no binding (tested: 500 nM)”. This molecule also registered an EC50 in test [11] of about 100 nM. In addition, the “absorbance (A450)” value turned out to be 0.251 A450 in test [13] and 0.11 A450 in test [14].

B2: anti-LRRC25 chimeric antibody 3E08 (antibody, human IgG4, V domains shown)
VH: EVKLLESGGGLVKPGGSLKLSCAASGFTLSSYAMSWVRQTPEKRLEWVASISRSNTTYYPDSVKGRFTISRDNAKNILYLQMSSLRSEDTAMYYCARGVLLRPFASWGQGTLVTVSA
VL: B1 VL with A7D, F101L, S105A, I111L
On to B2, for which the binding result in [1], in test [2], in test [3], in [4], in [5] and in test [6] was “no binding (tested: 20 nM)” throughout. Further, the binding result in test [7] is reported as “no binding (tested: 20 nM)”; in test [8] it was “no binding (tested: 20 nM)”; in test [9] it was “no binding (tested: 20 nM)”; in [10], “no binding (tested: 20 nM)”; in [12], “no binding (tested: 500 nM)”. This molecule also displayed a concentration giving a half-maximal response (EC50) in test [11] of about 1000 nM. The “absorbance (A450)” value was 0.152 A450 in test [13] and 0.052 A450 in test [14].

B3: anti-LRRC25 chimeric antibody 3F04 (antibody, human IgG4)
heavy: DVQLVESGGGLVKPGGSLKLSCAVSGFTLSSYAMSWVRQTPEKRLEWVASISRGGSTYYPDSVKGRFTISRDNGRNILNLQMSSLRSEDTAIYYCARGGGSTMITSLFAYWGQGTLVTVSAASTKGPSVFPLAPCSRSTSESTAALGCLVKDYFPEPVTVSWNSGALTSGVHTFPAVLQSSGLYSLSSVVTVPSSSLGTKTYTCNVDHKPSNTKVDKRVESKYGPPCPPCPAPEFLGGPSVFLFPPKPKDTLMISRTPEVTCVVVDVSQEDPEVQFNWYVDGVEVHNAKTKPREEQFNSTYRWSVLTVLHQDWLNGKEYKCKVSNKGLPSSIEKTISKAKGQPREPQVYTLPPSQEEMTKNQVSLTCLVKGFYPSDIAVEWESNGQPENNYKTTPPVLDSDGSFFLYSRLTVDKSRWQEGNVFSCSVMHEALHNHYTQKSLSLSLGK
light: DIVMTQDAFSNPVTLGTSASISCRSSKSLLHSNGITYLYWYLQKPGQSPQLLIYQMSNLASGVPDRFSSSGSGTDFTLRISRVEAEDVGVYYCAQNLELPFTFGSGTKLEIKRTVAAPSVFIFPPSDEQLKSGTASVVCLLNNFYPREAKVQWKVDNALQSGNSQESVTEQDSKDSTYSLSSTLTLSKADYEKHKVYACEVTHQGLSSPVTKSFNRGEC
Turning to B3, the binding result in test [1], in test [2], in [3], in [4], in test [5] and in test [6] was “no binding (tested: 20 nM)” throughout. In addition, the binding result in [7] is “no binding (tested: 20 nM)”; in test [8] it was “no binding (tested: 20 nM)”; in test [9], “no binding (tested: 20 nM)”; in test [10], “no binding (tested: 20 nM)”; in test [12], “no binding (tested: 500 nM)”. The molecule further returned an EC50 in test [11] of 63 nM. For the same molecule, the figures for the “absorbance (A450)” value in test [13] and in test [14] were 0.324 A450 and 0.156 A450, respectively.

B4: anti-LRRC25 chimeric antibody 3C01 (antibody, human IgG4, V domains shown)
VH: EEKLEESGGGLVKPGGSLKLSCAVSGFTLSSYAMSWVRQTPEKRLEWVASISRGGNTYYPDSVKGRFTISRDNGRNILNLQMSSLRSEDTAIYYCTRGGGSTMITSLFAYWGQGTLVTVSA
VL: DIVMTQDAPSVPVTPGESVSISCRSSKSLLHSNGNTYLYWFLQRPGQSPQLLIYRMSNLASGVPDRFSGSGSGTAFTLRISRVEAEDVGVYYCMQHLEYPFTFGSGTKLEIKR
notes: also called ATCC PTA-126026
Consider B4, for which the binding result in [1], in test [2], in test [3], in test [4], in test [5] and in test [6] was “no binding (tested: 20 nM)” in each case. Besides, the binding result was “no binding (tested: 20 nM)” in test [7]; “no binding (tested: 20 nM)” in test [8]; “no binding (tested: 20 nM)” in test [9]; “no binding (tested: 20 nM)” in [10]; “no binding (tested: 500 nM)” in test [12]. Also, the EC50 in test [11] is 30.3 nM. For the same molecule, the “absorbance (A450)” value was found to be 0.354 A450 in [13] and 0.079 A450 in [14].
